From PMC10397247

Columns and labels:
Test in all cases: two-hybrid library CCNG1;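 further: natural log of median RNA to DNA barcode read ratio; higher means stronger binding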
[1] = molecular target: T1, 4H3926-bH
T1 chain: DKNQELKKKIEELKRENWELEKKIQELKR

[2] = molecular target: T2, 4H3427-bH
T2 chain: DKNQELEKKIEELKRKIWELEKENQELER

[3] = molecular target: T3, 4H780-bH
T3 chain: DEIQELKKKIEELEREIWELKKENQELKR

[4] = molecular target: T4, 4H683-bH
T4 chain: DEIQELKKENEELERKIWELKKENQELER

[5] = molecular target: T5, 4H346-bH
T5 chain: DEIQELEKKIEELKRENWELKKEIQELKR

[6] = molecular target: T6, 4H3112-bH
T6 chain: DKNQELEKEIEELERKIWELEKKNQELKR

[7] = molecular target: T7, 4H797-bH
T7 chain: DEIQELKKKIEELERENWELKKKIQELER

[8] = molecular target: T8, 4H968-bH
T8 chain: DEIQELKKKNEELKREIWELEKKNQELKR

[9] = molecular target: T9, 4H457-bH
T9 chain: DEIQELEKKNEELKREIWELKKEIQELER

[10] = molecular target: T10, 4H4073-bH
T10 chain: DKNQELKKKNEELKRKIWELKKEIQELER

[11] = molecular target: T11, 4H855-bH
T11 chain: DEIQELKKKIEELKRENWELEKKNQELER

[12] = molecular target: T12, 4H575-bH
T12 chain: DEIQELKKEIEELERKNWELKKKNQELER

[13] = molecular target: T13, 4H953-bH
T13 chain: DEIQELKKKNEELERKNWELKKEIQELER

[14] = molecular target: T14, 4H2702-bH
T14 chain: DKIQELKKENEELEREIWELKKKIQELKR

[15] = molecular target: T15, 4H754-bH
T15 chain: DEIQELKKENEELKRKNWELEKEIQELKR

[16] = molecular target: T16, 4H918-bH
T16 chain: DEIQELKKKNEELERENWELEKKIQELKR

[17] = molecular target: T17, 4H3010-bH
T17 chain: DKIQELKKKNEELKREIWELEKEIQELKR

[18] = molecular target: T18, 4H56-bA
T18 chain: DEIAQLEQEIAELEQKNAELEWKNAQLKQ

[19] = molecular target: T19, 4H2673-bH
T19 chain: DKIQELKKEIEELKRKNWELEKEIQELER

[20] = molecular target: T20, 4H3961-bN; conditions: mean of both orientations
T20 chain: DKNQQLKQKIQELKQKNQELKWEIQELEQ

[21] = molecular target: T21, 4H4001-bN
T21 chain: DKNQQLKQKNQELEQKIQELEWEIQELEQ

[22] = molecular target: T22, 4H470-bN
T22 chain: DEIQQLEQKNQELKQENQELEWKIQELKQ

[23] = molecular target: T23, 4H3175-bA
T23 chain: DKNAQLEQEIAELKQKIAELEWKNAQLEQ

[24] = molecular target: T24, 4H3926-bA
T24 chain: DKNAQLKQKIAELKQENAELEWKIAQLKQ

[25] = molecular target: T25, 4H3613-bA
T25 chain: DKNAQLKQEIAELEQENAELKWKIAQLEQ

[26] = molecular target: T26, 4H3628-bA
T26 chain: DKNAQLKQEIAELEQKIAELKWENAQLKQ

[27] = molecular target: T27, 4H906-bA
T27 chain: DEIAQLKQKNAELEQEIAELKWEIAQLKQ

[28] = molecular target: T28, 4H3277-bA
T28 chain: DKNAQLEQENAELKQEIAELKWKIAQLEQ

[29] = molecular target: T29, 4H3497-bA
T29 chain: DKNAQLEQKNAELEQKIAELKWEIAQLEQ

[30] = molecular target: T30, 4H626-bA
T30 chain: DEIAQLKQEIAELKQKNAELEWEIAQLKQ

[31] = molecular target: T31, 4H3462-bA
T31 chain: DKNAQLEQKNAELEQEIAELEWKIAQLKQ

[32] = molecular target: T32, 4H591-bA
T32 chain: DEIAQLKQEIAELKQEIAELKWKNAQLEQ

[33] = molecular target: T33, 4H3298-bA
T33 chain: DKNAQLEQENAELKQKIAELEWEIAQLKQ

[34] = molecular target: T34, 4H477-bA
T34 chain: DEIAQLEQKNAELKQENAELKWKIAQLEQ

[35] = molecular target: T35, 4H2588-bA
T35 chain: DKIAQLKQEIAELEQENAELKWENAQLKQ

[36] = molecular target: T36, 4H2717-bA
T36 chain: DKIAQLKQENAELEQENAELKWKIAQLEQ

[37] = molecular target: T37, 4H348-bA
T37 chain: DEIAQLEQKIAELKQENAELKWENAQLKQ

[38] = molecular target: T38, 4H741-bA
T38 chain: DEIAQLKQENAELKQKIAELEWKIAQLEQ

[39] = molecular target: T39, 4H2915-bA
T39 chain: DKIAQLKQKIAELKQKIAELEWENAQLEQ

[40] = molecular target: T40, 4H319-bA
T40 chain: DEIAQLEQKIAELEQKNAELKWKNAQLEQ

[41] = molecular target: T41, 4H2692-bA
T41 chain: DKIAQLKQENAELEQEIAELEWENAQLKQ

[42] = molecular target: T42, 4H2839-bA
T42 chain: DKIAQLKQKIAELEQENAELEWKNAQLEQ

[43] = molecular target: T43, 4H492-bA
T43 chain: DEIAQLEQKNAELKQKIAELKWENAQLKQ

[44] = molecular target: T44, 4H3057-bA
T44 chain: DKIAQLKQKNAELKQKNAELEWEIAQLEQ

[45] = molecular target: T45, 4H40-bA
T45 chain: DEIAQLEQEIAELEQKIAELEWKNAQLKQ

[46] = molecular target: T46, P8A
T46 chain: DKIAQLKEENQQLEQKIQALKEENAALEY

[47] = molecular target: T47, P9A
T47 chain: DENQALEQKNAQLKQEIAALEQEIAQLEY

[48] = molecular target: T48, P7A
T48 chain: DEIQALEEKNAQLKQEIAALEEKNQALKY

[49] = molecular target: T49, P6A
T49 chain: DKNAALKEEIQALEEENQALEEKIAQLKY

[50] = molecular target: T50, 4H72-bN
T50 chain: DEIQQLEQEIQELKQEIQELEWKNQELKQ

[51] = molecular target: T51, 4H797-bN
T51 chain: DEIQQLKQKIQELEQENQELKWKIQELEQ

[52] = molecular target: T52, 4H3189-bN
T52 chain: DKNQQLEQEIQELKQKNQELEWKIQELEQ

[53] = molecular target: T53, 4H687-bN
T53 chain: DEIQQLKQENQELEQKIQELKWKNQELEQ

[54] = molecular target: T54, 4H883-bN
T54 chain: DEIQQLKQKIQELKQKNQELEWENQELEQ

[55] = molecular target: T55, 4H370-bN
T55 chain: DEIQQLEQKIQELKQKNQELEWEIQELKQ

[56] = molecular target: T56, P5bHq
T56 chain: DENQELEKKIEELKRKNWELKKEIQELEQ

[57] = molecular target: T57, 4H967-bN
T57 chain: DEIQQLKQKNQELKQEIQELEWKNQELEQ

[58] = molecular target: T58, 4H918-bN
T58 chain: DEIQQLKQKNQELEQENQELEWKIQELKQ

[59] = molecular target: T59, 4H3843-bN
T59 chain: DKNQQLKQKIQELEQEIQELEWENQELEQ

[60] = molecular target: T60, 4H568-bN
T60 chain: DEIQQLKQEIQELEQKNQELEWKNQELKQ

[61] = molecular target: T61, 4H607-bN
T61 chain: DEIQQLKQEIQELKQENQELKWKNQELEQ

[62] = molecular target: T62, 4H3606-bN
T62 chain: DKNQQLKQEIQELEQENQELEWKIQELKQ

[63] = molecular target: T63, 4H953-bN
T63 chain: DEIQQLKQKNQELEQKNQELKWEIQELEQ

[64] = molecular target: T64, 4H331-bN
T64 chain: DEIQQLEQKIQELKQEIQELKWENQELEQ

[65] = molecular target: T65, 4H462-bN
T65 chain: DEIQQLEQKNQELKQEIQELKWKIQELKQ

[66] = molecular target: T66, 4H3782-bN
T66 chain: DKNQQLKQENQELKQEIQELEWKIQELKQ

Binder: DKIQELKKENEELEREIWELKKKIQELKR [4H2702-bH]
- interaction score [1]: 0.525
- interaction score [2]: 0.468
- interaction score [3]: -0.871
- interaction score [4]: -0.558
- interaction score [5]: 0.405
- interaction score [6]: 0.549
- interaction score [7]: -0.247
- interaction score [8]: 0.8
- interaction score [9]: 1.57
- interaction score [10]: 0.92
- interaction score [11]: -0.0377
- interaction score [12]: -2.01
- interaction score [13]: 0.896
- interaction score [14]: 1.55
- interaction score [15]: -0.588
- interaction score [16]: -0.77
- interaction score [17]: 1.37

Binder: DKIQELKKEIEELKRKNWELEKEIQELER [4H2673-bH]
- interaction score [1]: 0.192
- interaction score [2]: -0.449
- interaction score [3]: -0.56
- interaction score [4]: 0.639
- interaction score [5]: -0.803
- interaction score [6]: -0.64
- interaction score [7]: -0.55
- interaction score [8]: -0.933
- interaction score [9]: -0.154
- interaction score [10]: 0.575
- interaction score [11]: -0.854
- interaction score [12]: -0.762
- interaction score [13]: -1.62
- interaction score [14]: -0.671
- interaction score [18]: 0.863
- interaction score [19]: -0.111
- interaction score [15]: -1.99
- interaction score [16]: -0.87
- interaction score [17]: 2.11

Binder: DKNQQLKQKIQELKQKNQELKWEIQELEQ [4H3961-bN]
- interaction score [20]: -1.14
- interaction score [21]: -0.763
- interaction score [22]: -1.5

Binder: DKNAQLEQEIAELKQKIAELEWKNAQLEQ [4H3175-bA]
- interaction score [23]: 0.672
- interaction score [24]: -0.662
- interaction score [25]: -0.277
- interaction score [26]: -0.531
- interaction score [21]: -0.893
- interaction score [27]: -1.09
- interaction score [28]: -0.717
- interaction score [29]: 0
- interaction score [30]: -2
- interaction score [31]: -0.259
- interaction score [32]: -1.55
- interaction score [33]: -0.491

Binder: DKIAQLKQEIAELEQENAELKWENAQLKQ [4H2588-bA]
- interaction score [34]: -1.19
- interaction score [35]: 1.71
- interaction score [36]: 0.0896
- interaction score [37]: 1.27
- interaction score [38]: -0.854
- interaction score [39]: 0.571
- interaction score [40]: 0.789
- interaction score [41]: -0.738
- interaction score [42]: 0.846
- interaction score [43]: 0.34
- interaction score [28]: -0.938
- interaction score [44]: -0.114
- interaction score [45]: -1.21

Binder: DKNAALKEEIQALEEENQALEEKIAQLKY [P6A]
- interaction score [46]: -0.152
- interaction score [47]: -0.171
- interaction score [48]: -0.197
- interaction score [49]: -0.792

Binder: DKNQQLEQEIQELKQKNQELEWKIQELEQ [4H3189-bN]
- interaction score [50]: -0.483
- interaction score [51]: -0.933
- interaction score [52]: -1.1
- interaction score [53]: -0.938
- interaction score [54]: -1.35
- interaction score [55]: -1.02
- interaction score [56]: -2.13
- interaction score [57]: -1.41
- interaction score [58]: -0.805
- interaction score [59]: -1.81
- interaction score [60]: -0.877
- interaction score [61]: -2.38
- interaction score [21]: -1.58
- interaction score [62]: -0.893
- interaction score [63]: -1.88
- interaction score [64]: -1.93
- interaction score [65]: -0.731
- interaction score [66]: -1.38
